Consider 4 molecules from PMC4838364 (Nucleic Acids Research, 2016).

To fix the notation:
B1: Hef from Thermoplasma acidophilum, wild-type (natural protein, Thermoplasma acidophilum DSM 1728, UniProt Q9HI46 1-508, looked up)
chain: MIIQPREYQLNVFKNSIGQNTLIVMPTGLGKTIIAAMFIEKFYGEKKRSLMVAPTKPLVLQHARTIADSTGISENEIGVFTGEIDAEERELIWVTKKIFVSTPQVVFNDMRSGILDITKFDLIIFDEAHRAVGNYAYVDIAQEYLKYKKKLIIGLTASPGSSREKIDEIMANLGISKVIAKTEMDEDVRKYVKTIDVKLIKIREPDGTKEIVNMIDAVMSKLLEPVKSSNFSIGRSRKDLVATMQKVINSAKEDRSLFQLVRRITAAIRLDYLKEYIETQGIDVALHYLEEMEKSQDPGIRRAISMLSSLDEFATLRTKLMLAADGYTNPKMEKTLSIMESNVHGNARAIVFTHYRITSDLLMDYIQKNGTSLKPVRFIGQADRGSDEGLSQDQQKKIIEDFKNNVYNVLIATSIAEEGLDIPDTDFVIFYEAVPSEIRYIQRKGRTGRSRNGQVYILVFENSRDMAYYYSSIRKVSRMTQTIEDLRQESGSDEKEEKSDVQKTIFDF
B2: hsFANCM 1-17 wildtype peptide (peptide, UniProt Q8IYD8 1-17, looked up)
peptide: MSGRQRTLFQTWGSSIS
B3: PCNA from Thermoplasma acidophilum (natural protein, Thermoplasma acidophilum DSM 1728, UniProt Q9HJQ0 1-246, looked up)
chain: MIRLNLSVKNLKEITDLLSTIVSEAKFRVDENGMSVTAVDPAHVAMIRLEVPKEAFVEFHTDGQEEIALDIDRLKSVIRLASSSENVGITKDGEKLKFELGTINKSISLLDPSTIVTPKIPNITSEYYAVLKKSDFERGLRAAEDISDSIRFTLSQDGFKAYSHSESEESEMILPKDLITDMSCNTTIKSSYPLEYLLKFIKAISSTDSLKLSFRDDYPLSVEFYLDQNPGAKIKGLFLLAPRMEQ

Data set [1] deals with Flag-FANCM PIP-box mutant (L8R/W12S), full length (human) (UniProt Q8IYD8). Nature of the data set: proximity ligation.
Chain of Flag-FANCM PIP-box mutant (L8R/W12S), full length (human) (Q8IYD8 whole entry L8R/W12S): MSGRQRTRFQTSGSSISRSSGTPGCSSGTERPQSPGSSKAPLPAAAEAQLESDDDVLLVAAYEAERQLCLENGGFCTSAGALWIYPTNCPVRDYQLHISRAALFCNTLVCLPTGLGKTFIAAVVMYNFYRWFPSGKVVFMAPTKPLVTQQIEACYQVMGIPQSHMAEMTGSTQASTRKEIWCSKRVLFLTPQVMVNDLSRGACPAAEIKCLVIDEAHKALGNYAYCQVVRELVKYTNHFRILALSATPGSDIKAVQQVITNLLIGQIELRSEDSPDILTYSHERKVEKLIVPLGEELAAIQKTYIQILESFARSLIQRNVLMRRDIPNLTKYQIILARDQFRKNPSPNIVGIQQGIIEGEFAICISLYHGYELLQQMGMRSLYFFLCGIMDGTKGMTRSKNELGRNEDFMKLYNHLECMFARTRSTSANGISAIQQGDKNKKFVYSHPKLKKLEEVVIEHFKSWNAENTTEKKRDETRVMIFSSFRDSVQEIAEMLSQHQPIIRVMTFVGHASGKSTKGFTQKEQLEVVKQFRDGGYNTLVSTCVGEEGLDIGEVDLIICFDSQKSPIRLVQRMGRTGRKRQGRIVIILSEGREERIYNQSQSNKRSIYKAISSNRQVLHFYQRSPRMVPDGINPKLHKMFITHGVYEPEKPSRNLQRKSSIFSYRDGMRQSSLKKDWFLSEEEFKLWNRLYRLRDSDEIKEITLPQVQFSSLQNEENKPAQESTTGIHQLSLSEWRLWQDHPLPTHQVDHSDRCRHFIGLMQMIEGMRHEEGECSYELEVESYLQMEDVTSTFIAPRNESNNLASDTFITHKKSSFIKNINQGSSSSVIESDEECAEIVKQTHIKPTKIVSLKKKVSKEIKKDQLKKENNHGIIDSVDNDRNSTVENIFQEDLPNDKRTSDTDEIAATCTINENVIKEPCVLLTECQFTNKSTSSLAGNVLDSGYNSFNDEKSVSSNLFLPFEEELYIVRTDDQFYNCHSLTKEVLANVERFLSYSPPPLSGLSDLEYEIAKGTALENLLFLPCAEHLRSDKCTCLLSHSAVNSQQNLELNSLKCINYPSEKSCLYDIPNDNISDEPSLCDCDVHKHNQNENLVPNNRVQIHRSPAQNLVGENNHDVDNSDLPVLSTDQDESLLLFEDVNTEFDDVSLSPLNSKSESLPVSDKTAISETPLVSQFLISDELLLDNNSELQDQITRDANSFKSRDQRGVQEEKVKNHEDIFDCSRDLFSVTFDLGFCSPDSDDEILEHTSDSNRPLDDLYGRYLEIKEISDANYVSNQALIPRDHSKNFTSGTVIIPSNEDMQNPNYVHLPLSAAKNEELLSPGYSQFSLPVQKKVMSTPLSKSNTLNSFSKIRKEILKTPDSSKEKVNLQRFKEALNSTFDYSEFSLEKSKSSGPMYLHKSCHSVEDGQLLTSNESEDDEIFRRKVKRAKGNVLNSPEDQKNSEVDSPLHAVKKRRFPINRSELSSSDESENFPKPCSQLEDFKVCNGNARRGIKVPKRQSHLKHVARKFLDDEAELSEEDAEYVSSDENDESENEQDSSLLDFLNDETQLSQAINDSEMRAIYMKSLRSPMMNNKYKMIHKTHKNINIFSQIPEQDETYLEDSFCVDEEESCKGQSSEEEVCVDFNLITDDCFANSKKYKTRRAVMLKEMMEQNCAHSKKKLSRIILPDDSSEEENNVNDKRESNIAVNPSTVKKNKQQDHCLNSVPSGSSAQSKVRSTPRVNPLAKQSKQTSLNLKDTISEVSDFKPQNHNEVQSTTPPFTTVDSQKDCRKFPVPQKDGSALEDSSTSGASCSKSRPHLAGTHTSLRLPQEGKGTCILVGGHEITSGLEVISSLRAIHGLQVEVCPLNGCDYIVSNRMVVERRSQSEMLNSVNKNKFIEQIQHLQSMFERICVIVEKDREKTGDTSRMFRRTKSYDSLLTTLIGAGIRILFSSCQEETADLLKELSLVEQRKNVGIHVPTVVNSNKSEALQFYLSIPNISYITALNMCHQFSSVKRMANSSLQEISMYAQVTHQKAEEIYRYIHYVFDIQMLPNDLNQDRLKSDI
The target of data set [2] is B3. Nature of the data set: SAXS.
Data set [3] concerns the target B3. Nature of the data set: SEC. Background: Size exclusion chromatography separates by hydrodynamic size, large species first.
Another data set has as its target Human PCNA, recombinant (human, UniProt P12004 1-261). Nature of the data set: ITC. For orientation: Isothermal titration calorimetry measures the heat released or taken up as one component is titrated into another.
The data set “SEC” deals with the molecule itself. Nature of the data set: SEC.
In data set [4] the target is B1. Nature of the data set: ITC.

Usually stoichiometry N stands for a count of units in the complex or per binding partner. One may read the Kd as the equilibrium constant for the complex coming apart.

Chain of Human PCNA, recombinant (P12004 whole entry): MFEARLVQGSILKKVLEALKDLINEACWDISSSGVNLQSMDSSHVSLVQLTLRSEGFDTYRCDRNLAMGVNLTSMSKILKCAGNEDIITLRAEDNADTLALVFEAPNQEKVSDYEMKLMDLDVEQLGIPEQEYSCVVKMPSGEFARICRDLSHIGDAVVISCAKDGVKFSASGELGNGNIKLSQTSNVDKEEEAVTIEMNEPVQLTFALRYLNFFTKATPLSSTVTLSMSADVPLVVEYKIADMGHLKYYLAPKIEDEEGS

For the molecule “PCNA, endogenous (from UniProt P12004 1-261) (natural protein)”, the PLA signal relative to wildtype FANCM (HU-treated cells) in data set [1] turned out to be 50%.

Regarding B1, the entries for the “stoichiometry N” value in data set [2] and in data set [3] were 3 taHef per taPCNA trimer and 3 taHef monomers per taPCNA homotrimer, respectively.

As to B2, the Kd in the data set with Human PCNA, recombinant is 13 µM.

In the case of B3, the “stoichiometry N” value in the data set “SEC” amounted to 3. This molecule showed a Kd in data set [4] of 1 µM.
